Results reported in patent US20050054043A1.

Target: transferrin receptor on HeLa S3 cells (human) (UniProt P02786)
Test: radioiodinated transferrin on HeLa S3 cells, no competitor

transferrin receptor on HeLa S3 cells (human), sequence (P02786 whole entry): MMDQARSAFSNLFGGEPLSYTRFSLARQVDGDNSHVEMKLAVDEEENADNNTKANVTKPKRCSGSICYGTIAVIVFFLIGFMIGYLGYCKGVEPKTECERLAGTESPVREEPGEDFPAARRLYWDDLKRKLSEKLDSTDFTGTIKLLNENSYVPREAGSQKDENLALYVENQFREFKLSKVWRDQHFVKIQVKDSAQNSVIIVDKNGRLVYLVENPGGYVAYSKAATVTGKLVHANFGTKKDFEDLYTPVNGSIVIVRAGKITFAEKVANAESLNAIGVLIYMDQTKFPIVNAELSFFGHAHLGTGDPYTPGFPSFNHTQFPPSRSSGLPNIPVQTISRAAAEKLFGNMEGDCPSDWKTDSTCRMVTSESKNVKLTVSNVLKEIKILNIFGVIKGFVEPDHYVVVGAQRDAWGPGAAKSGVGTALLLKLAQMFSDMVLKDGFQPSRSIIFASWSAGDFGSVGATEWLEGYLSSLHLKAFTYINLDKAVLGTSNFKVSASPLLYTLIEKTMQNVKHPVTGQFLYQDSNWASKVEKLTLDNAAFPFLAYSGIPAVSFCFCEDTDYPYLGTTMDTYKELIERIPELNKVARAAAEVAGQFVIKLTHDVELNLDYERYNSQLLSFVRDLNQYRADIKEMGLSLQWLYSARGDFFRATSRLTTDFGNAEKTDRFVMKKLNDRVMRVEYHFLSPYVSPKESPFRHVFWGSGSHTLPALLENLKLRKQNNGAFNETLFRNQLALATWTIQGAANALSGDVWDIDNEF

Work on radiolabeled diferric transferrin yielded a TF/cell in the absence of competitor of 328000 TF/cell and a cpm bound in the absence of competitor of 7480 cpm.
